Data published in publication PMC8041823, “Structural comparison of Acinetobacter baumannii β-ketoacyl-acyl carrier protein reductases in fatty acid and aryl polyene biosynthesis” (Scientific Reports, 2021).

Experiments:
[1] = target: Acinetobacter baumannii FabG (β-ketoacyl-ACP reductase of the fatty acid synthase gene cluster) (Acinetobacter baumannii (clinical CRAB strain C1)) (UniProt V5VHN7); assay: crystal structure; apo AbFabG, 1.79 Å, four molecules in the asymmetric unit
[2] = target: Acinetobacter baumannii ApeQ (β-ketoacyl-ACP reductase of the aryl polyene biosynthesis gene cluster) (Acinetobacter baumannii (clinical CRAB strain C1)); assay: crystal structure; apo AbApeQ, space group P3_(1)2, four molecules in the asymmetric unit
[3] = target: Acinetobacter baumannii ApeQ (β-ketoacyl-ACP reductase of the aryl polyene biosynthesis gene cluster) (Acinetobacter baumannii (clinical CRAB strain C1)); assay: crystal structure; AbApeQ co-crystallised with NADPH (1:3 molar ratio), space group P2_(1), four molecules in the asymmetric unit

stoichiometry N [1]	stoichiometry N [2]	stoichiometry N [3]	Substance
4	–	–	Acinetobacter baumannii FabG (β-ketoacyl-ACP reductase of the fatty acid synthase gene cluster) (from UniProt V5VHN7 1-244) (enzyme)
–	4	4	Acinetobacter baumannii ApeQ (β-ketoacyl-ACP reductase of the aryl polyene biosynthesis gene cluster) (enzyme)
